The assay deals with Cyanophora paradoxa photosystem I monomer2 (PSI-monomer unit lacking PsaK) (Cyanophora paradoxa (endogenous, strain NIES-547)) (UniProt P48112). As to the kind of experiment: cryo-EM structure; PSI tetramer purified from Cyanophora thylakoids; GraFix (glutaraldehyde cross-linked) tetramer at 3.8 Å with C2 symmetry; unfixed wild-type tetramer at 4.0 Å; focused maps of monomer1 and monomer2 at 3.3 Å and 3.2 Å; 0.03% β-DDM, 50 mM Mes-NaOH pH 6.5.
UniProt P48112, sequence (P48112 whole entry, looked up): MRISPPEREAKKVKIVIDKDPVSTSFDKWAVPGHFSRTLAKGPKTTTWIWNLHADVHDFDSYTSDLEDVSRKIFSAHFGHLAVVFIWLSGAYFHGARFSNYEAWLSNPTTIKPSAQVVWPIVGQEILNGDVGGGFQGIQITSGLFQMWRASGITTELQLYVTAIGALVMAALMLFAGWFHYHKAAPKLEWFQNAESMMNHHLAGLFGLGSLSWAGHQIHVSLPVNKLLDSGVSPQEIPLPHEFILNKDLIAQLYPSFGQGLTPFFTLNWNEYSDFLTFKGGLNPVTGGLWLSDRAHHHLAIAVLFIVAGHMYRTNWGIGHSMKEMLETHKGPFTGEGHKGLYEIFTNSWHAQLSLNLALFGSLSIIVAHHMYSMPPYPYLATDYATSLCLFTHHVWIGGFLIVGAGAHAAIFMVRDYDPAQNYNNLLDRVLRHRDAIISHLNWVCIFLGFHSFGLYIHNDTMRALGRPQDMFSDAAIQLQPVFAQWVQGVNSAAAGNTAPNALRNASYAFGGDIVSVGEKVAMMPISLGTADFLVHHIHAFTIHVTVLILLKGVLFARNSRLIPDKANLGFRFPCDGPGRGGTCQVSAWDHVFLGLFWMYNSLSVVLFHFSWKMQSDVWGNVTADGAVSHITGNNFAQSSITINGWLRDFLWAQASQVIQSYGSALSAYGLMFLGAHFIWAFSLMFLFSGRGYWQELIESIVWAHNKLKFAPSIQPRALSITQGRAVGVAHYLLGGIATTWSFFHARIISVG

As to “Cyanophora paradoxa photosystem I monomer1 (PSI-monomer unit with PsaK) (from UniProt P48112 1-752; P31173 1-81; Q9T4W8 54-220; P48114 1-70; P48115 26-186; P48116 1-35; P48117 1-40; P48185 1-31) (complex)”, the stoichiometry N (PSI-monomer units) worked out at 4.

Values taken from publication PMC8967866.
